# Laboratory results as given in publication PMC6386705.
# Read-outs that look alike come from different tables or passages of the source.
# B1: UUUAUU (ssRNA)
# RNA: UUUAUU
# B2: AUUUUU (ssRNA)
# RNA: AUUUUU
# B3: UUUUUU (ssRNA)
# RNA: UUUUUU
# B4: UUUUA (ssRNA)
# RNA: UUUUA
# B5: AUUUU (ssRNA)
# RNA: AUUUU
# B6: UUUUU (ssRNA)
# RNA: UUUUU
# B7: UUAUU (ssRNA)
# RNA: UUAUU
# B8: AUUAU (ssRNA)
# RNA: AUUAU
# B9: AUUAUU (ssRNA)
# RNA: AUUAUU
# B10: c-fos ARE 11-mer (ssRNA)
# RNA: AUUUUUAUUUU
# Assays:
# [1] = biological target: T1, HuR RRM3 (human, UniProt Q15717 241-326); assay: ITC
# [2] = biological target: T1, HuR RRM3; assay: ITC; remark: listed apart in the source
# [3] = biological target: T2, HuR RRM3 W261E (human, UniProt Q15717 241-326, W261E); assay: ITC
# [4] = biological target: T1, HuR RRM3; assay: ITC; remark: listed apart in the source
# [5] = biological target: T1, HuR RRM3; assay: NMR
# [6] = biological target: T1, HuR RRM3; assay: NMR; remark: listed apart in the source
# [7] = biological target: T1, HuR RRM3; assay: NMR; remark: listed apart in the source
# [8] = biological target: T1, HuR RRM3; assay: ITC; remark: listed apart in the source
# [9] = biological target: HuR RRM12 (human, UniProt Q15717 2-189); assay: ITC
# [10] = biological target: HuR RRM3 FY (human, UniProt Q15717 241-326, F247A;Y249A); assay: NMR
# [11] = biological target: T1, HuR RRM3; assay: ITC; remark: listed apart in the source
# [12] = biological target: T2, HuR RRM3 W261E; assay: NMR
# T1 sequence (Q15717 241-326): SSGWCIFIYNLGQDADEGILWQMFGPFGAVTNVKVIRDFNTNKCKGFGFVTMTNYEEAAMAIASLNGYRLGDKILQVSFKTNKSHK
# T2 sequence (Q15717 241-326 W261E): as the sequence (Q15717 241-326) above, with W21E counted along it
# Sequence of HuR RRM3 FY (Q15717 241-326 F247A/Y249A): as the sequence (Q15717 241-326) above, with F7A, Y9A counted along it
# Sequence of HuR RRM12 (Q15717 2-189): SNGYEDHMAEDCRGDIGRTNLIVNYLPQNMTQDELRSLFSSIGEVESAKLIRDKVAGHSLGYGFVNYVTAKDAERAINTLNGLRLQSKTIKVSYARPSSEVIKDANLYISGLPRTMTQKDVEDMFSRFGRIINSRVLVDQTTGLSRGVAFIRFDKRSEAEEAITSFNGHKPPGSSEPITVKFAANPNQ
binder,measurement,setting,value
B1,Kd,[1],5.6 ± 0.4 µM
B2,Kd,[2],4.03 ± 0.25 µM
B3,binding result,[3],binds
same,Kd,[4],3.58 ± 0.21 µM
B4,binding result,[5],binds
B5,binding result,[5],binds
B6,binding result,[6],binds
B7,binding result,[5],binds
B8,binding result,[7],binds
B9,Kd,[8],5.75 ± 0.27 µM
B10,Kd,[9],0.14 µM
same,binding result,[10],no binding
same,Kd,[11],0.65 µM
same,binding result,[12],binds
